Two substances from PMC6208366 can be followed below.

For experiment [1], the target named is human full-length Hsp90β (human) (UniProt P08238). Nature of the experiment: ITC. Conditions: domain or fragment.
Experiment [2] concerns the target IANBD-labeled Hsp90 M362C (human). Nature of the experiment: stopped-flow fluorescence; IANBD-labeled Hsp90 M362C (1 µM) mixed with equal volumes of FKBP51, FK1-FK2, FK2-TPR or buffer, pseudo-first-order, 37 °C, 25 mM sodium phosphate/300 mM NaCl pH 7.2; rates as fluorescence increase at 20 s.

Sequence of human full-length Hsp90β (human) (P08238 whole entry, the tested form may be a part): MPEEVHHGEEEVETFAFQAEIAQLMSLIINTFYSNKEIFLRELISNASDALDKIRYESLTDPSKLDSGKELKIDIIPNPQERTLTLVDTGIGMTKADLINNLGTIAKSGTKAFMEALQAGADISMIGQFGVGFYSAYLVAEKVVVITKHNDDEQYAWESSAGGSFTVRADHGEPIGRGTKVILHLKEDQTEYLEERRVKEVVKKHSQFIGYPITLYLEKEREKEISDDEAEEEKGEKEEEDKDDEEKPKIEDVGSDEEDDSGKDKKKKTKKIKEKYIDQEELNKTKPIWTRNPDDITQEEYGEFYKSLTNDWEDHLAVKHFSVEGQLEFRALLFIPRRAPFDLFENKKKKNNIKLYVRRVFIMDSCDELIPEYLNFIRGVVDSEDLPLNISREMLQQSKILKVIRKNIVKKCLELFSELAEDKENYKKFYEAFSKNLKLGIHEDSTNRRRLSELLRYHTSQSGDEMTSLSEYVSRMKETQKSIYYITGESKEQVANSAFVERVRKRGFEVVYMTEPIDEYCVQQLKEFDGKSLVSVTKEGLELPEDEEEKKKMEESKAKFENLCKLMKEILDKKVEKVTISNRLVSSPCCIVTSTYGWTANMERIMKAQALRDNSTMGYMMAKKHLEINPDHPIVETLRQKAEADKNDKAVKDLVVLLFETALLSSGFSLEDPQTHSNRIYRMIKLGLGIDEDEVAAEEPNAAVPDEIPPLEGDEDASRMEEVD
Sequence of FK2-TPR (which lacks FK1) (Q13451 whole entry): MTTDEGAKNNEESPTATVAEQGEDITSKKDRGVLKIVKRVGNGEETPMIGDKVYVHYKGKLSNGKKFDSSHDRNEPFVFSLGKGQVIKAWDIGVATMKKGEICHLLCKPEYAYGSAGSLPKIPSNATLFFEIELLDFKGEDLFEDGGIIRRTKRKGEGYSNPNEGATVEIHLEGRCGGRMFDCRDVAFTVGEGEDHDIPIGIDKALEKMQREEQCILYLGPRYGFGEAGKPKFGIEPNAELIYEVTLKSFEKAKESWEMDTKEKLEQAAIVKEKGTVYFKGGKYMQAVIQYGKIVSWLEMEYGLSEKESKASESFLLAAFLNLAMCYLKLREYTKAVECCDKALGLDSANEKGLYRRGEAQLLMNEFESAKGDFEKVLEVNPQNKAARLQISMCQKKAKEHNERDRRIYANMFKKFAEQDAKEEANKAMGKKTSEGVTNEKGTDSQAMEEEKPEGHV

For orientation: Kd means the equilibrium constant for the complex coming apart. Lower therefore signals tighter binding. With “FK2-TPR (which lacks FK1) (from UniProt Q13451 1-457)”, the Kd in experiment [1] is 728 nM.

“FK2-TPR (which lacks FK1) (from UniProt Q13451 1-457) (domain or fragment)” had a ΔF (rate of Hsp90 binding, fluorescence increase) in experiment [2] of 0.0027 s⁻¹.
